The record followed here is patent US20260132219A1.

Usually Kd stands for the free concentration of one partner at which half of the binding sites on the other are occupied at equilibrium, for simple one-to-one binding.

Experiment [1] has as its target human HER3 (UniProt P21860). Description: BLI; absence of human NRG1. In general terms: Biolayer interferometry detects binding as a change in optical thickness at a sensor tip.
For experiment [2], the target named is human HER3 (human) (UniProt Q02297). Description: BLI; presence of human NRG1.

In the case of LJM-716, the Kd in experiment [1] is less than 1 pM; in experiment [2] it was 16.8 nM.
